System: MS2 coat protein
Test: apparent KD of MS2 coat protein; designed switch direction (-1 OFF switch, 1 ON switch): -1; higher = weaker reporter binding
Summary of the method: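 The apparent KD reported per design is the median over clusters of curve fits to normalised cluster fluorescence. The RNA switches were transcribed on Illumina chips by stalled E. coli RNA polymerase. SNAP-549-labelled MS2 coat protein was titrated from 0.7 or 1.5 nM, doubling up to 3 µM, in Tris-HCl pH 7.5 buffer containing KCl, MgCl2, BSA, DTT, tRNA and Tween-20, with no input, 200 uM small-molecule ligand, or an oligonucleotide input.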

[1] = input ligand: microRNA oligo, concentration not stated
[2] = Eterna round: R95, input ligand: microRNA oligo, concentration not stated
[3] = Eterna round: R95, input ligand: FMN 200 uM
[4] = Eterna round: R95, input ligand: none

Sequence	apparent KD of MS2 coat protein (input ligand: FMN 200 uM) [nM]	apparent KD of MS2 coat protein [1] [nM]	apparent KD of MS2 coat protein (input ligand: none) [nM]	apparent KD of MS2 coat protein [2] [nM]	apparent KD of MS2 coat protein [3] [nM]	apparent KD of MS2 coat protein [4] [nM]
ACAUGAGGAUCACCCAUGUGAAAACAAUGGCUGACUUUGAGAUAGGAUAUAGGUGCAUAUCAAACCUAGAAGGGUCAUUACUGG [Deportation 91 - Jieux - Exclusion NG 3] (Eterna round: R96, puzzle: Exclusion NG 3)	46.6	35.3	46.5	–	–	–
GGAUAUAAUGUGAGGAUAUCUGCGAUACCUAGUCGAGAGAAGGCACAUGAGGAUCACCCAUGUGAGGACCUCGU [Eternabot (L1) Solution 98] (Eterna round: R97, puzzle: Brourd's mod of Exclusion 4)	29.6	–	19.4	–	–	–
ACGCAUUGCCAAAGGUAGUGCGUUACAUGAGGAUCACCCAUGUAGGAUAUGGUAGGCAAAGCUUACCAGAAGGACAUGAUAAUU [Mat - Exclusion NG 3 - Mod of JL - D6] (Eterna round: R96, puzzle: Exclusion NG 3)	227	44.8	51.2	–	–	–
UUUUAACAUGAGGAUCACCCAUGUGAGGAUAUCGAAAUUUAUAUUAAUAUUAAUAAUACGAGAAGGCACAUUUU [JMF 22] (puzzle: Exclusion 1)	–	–	–	71	–	–
AUAGGUUCGUAGGAUAUUCCUGCAGGCGCGCUGGAAGAAGGAUGAACAUGAGGAUCACCCAUGUGAACACUCCG [Eternabot (L2) Solution 88] (Eterna round: R97, puzzle: Exclusion 6)	78.3	–	19.6	–	–	–
AGAGACCGAGGAUAUCCCAGAACUCACAUGAGGAUCACCCAUGUGUAGAUUGGGUGUCACGGAGAAGGCGGAUCGC [EX5 C.21] (Eterna round: R97, puzzle: Exclusion 5)	14	–	13.8	–	–	–
ACUGUUUGAUUCCUCUUAUACAUGAGGAUCACCCAUGUUAUCGAGGAUAUGCAUUAGAGUGUUUAGCAGAAGGCGAUGUAAUUG [JR_ExcNG3_Sub033] (Eterna round: R96, puzzle: Exclusion NG 3)	112	8.68	17.9	–	–	–
UUGUACCGGUGAGGAUAUCGUUGAUAGAACUUUAUGAUAUACAUGAGGAUCACCCAUGUUACUUUCGAGAAGGCAUCGGAUUAU [ExNG2 6th] (Eterna round: R96, puzzle: Exclusion NG 2)	12.3	10.3	21.8	–	–	–
AAAGUUGCCUACGGUGUGCACAUGAGGAUCACCCAUGUACCUCCAUGGCAGUGCCAAUAAUUAUGCUCGUCACUACA [Eternabot (L1) Solution 18] (Eterna round: R97, puzzle: Sensor, turn-off variant 1)	14.9	–	14.2	–	–	–
CUCCUCGUGGCGCCUAAACACAUGAGGAUCACCCAUGUACAGGCUUUUUGCCGUCUUACAAUAAAACCGAGGAUACG [Inveon] (puzzle: Sensor v3, turn-off variant 1)	–	–	–	50.8	19.8	20.4
CGGGACGUCCUGAUAAUAAGACAUGAGGAUCACCCAUGUCGGCAGGAUAUCAGUCCUUACGGUUUUGAGAAGGGUCGACAACCA [Birace] (Eterna round: R96, puzzle: Exclusion NG 3)	14.1	8.27	13.4	–	–	–
UAAUACAAGCAAAGAUCUUACAUGAGGAUCACCCAUGUGCUCGUCUUAUAAAGUACUAUCACGAAAGUGAUAGUACU [Mat - Sensor v3 - turn-off var 1 - Eli Mod - D94] (puzzle: Sensor v3, turn-off variant 1)	–	–	–	202	29.3	34.6
AUAAAGUCAGGAUAUCGAAGUGAGUGGUGGAGGGUAAGGUACGAGAAGGGACAUGAGGAUCACCCAUGUAGGAA [JR_Exclusion4)Sub005] (puzzle: Exclusion 4)	–	–	–	27.2	24	29.5

Reference: the supplement of paper PMC9170038
